B1: A3M4 (antibody, human IgG1, kappa, V domains shown)
VH: QVQLVQSGAEVKKPGSSVKVSCKASGYTFTSYGITWVRQAPGQGLEWMGENYPRSGNTYYNEKFKGRVTITADKSTSTAYMELSSLRSEDTAVYYCARSEFISTVVAPYYYALDYWGQGTLVTVSS
VL: DIVMTQSPDSLAVSLGERATINCKASKKVTIFGSTSALHWYQQKPGQPPKLIYNGAKPESGVPDRFSGSGSGTDFTLTISSLQAEDVAVYYCLQNKEVPYTFGGGTKVEIKR
notes: Full length chains
B2: A12.5M3 (antibody, V domains shown)
VH: B1 VH with T30A, S99V
VL: DIVMTQSPDSLAVSLGERATINCKASKKVTIFGSTSALHWYQQKPGQPPKLIYNGAKLESGVPDRFSGSGSGTDFTLTISSLQAEDVAVYYCLQNKEVPYTFGGGTKVEIK
B3: A10.5M3 (antibody, V domains shown)
VH: B1 VH with T30A
VL: B2 VL
B4: A8M4 (antibody, V domains shown)
VH: B1 VH with N51D, S99A
VL: B2 VL with L58P
B5: A3M5 (antibody, human IgG1, kappa, V domains shown)
VH: B1 VH
VL: B1 VL with T35I, N54D, P58L
notes: Full length chains
B6: A10M3 (antibody, human IgG1, kappa, V domains shown)
VH: B1 VH with T30A, V93M
VL: B1 VL with P58L
notes: Full length chains
B7: A5M4 (antibody, human IgG1, kappa, V domains shown)
VH: B1 VH with S99A
VL: B1 VL
notes: Full length chains
B8: A6M4 (antibody, human IgG1, kappa, V domains shown)
VH: B1 VH with S99V
VL: B1 VL
notes: Full length chains
B9: A7M4 (antibody, human IgG1, kappa, V domains shown)
VH: B1 VH with N51D
VL: B1 VL
notes: Full length chains
B10: A9M4 (antibody, V domains shown)
VH: B1 VH with N51D, S99V
VL: B2 VL with L58P
B11: A10M4 (antibody, human IgG1, kappa, V domains shown)
VH: B1 VH with T30A, V93M
VL: B1 VL
notes: Full length chains
B12: A3M6 (antibody, human IgG1, kappa, V domains shown)
VH: B1 VH
VL: B1 VL with T35I, N54Q, P58L
notes: Full length chains

Substitutions are numbered along the chain they refer to.

This assay deals with T1, recombinant human IL-23 (human, UniProt Q9NPF7 20-189; P29460 23-328).
T1 construct: also called hIL-23
T1 sequence 1: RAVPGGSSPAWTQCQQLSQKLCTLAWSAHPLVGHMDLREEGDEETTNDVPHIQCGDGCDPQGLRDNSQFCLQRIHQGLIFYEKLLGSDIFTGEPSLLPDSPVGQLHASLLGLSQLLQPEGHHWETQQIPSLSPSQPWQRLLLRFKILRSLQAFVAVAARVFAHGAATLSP
T1 sequence 2: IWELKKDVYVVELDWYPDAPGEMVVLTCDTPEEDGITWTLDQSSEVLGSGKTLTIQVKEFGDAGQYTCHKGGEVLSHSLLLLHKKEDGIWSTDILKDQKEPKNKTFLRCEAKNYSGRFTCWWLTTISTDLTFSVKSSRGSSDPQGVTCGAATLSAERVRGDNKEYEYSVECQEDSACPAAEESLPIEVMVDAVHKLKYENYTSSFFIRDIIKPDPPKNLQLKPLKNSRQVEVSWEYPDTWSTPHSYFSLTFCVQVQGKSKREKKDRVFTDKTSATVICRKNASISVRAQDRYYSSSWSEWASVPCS
Nature of the assay: SPR (Biacore T100), tissue culture supernatant antibody captured on anti-human IgG, IL-23 analyte. As to the method:
Biacore analysis was carried out using a capture surface on a CM5 chip. Anti-human IgG (BR-1008-39) was used as the capturing agent. Anti-human IgG was coupled to a CM5 biosensor chip by primary amine coupling. Humanized antibody was captured on this immobilised surface and defined concentrations of IL-23 were passed over this captured surface. An injection of buffer over the captured antibody surface was used for double-referencing. […] T100 Biacore machine was used to generate the data; all runs were carried out at 25° C. using HBS EP. Data was analysed using the software inherent to the machine and fitted to the 1:1 model of binding. Tables 7 and 8 detail the IL-23 binding analysis carried out on the 8C92H6.HC1LC1 chimera and selected humanized variants in two separate experiments. […] The data shown for the humanized variants is representative of a number of runs. The chimeric mAb (8C9H6.HC1LC1) was only run once in each experiment, so data shown for this mAb is from that one run.
(In general: In SPR one partner is held on a chip, and binding of the other changes the refractive index at the surface.)
Take B1: the Kd turned out to be 0.0775 nM, the off-rate constant (koff) turned out to be 0.000106 s⁻¹ and the kon was found to be 1.36e+06 M⁻¹ s⁻¹.
For B2, the Kd was determined as 0.0637 nM, the koff came out at 0.000172 s⁻¹ and the kon came out at 2.7e+06 M⁻¹ s⁻¹.
B3: the Kd is 0.0962 nM, the koff is 0.000115 s⁻¹ and the kon is 1.19e+06 M⁻¹ s⁻¹.
In the case of B4, the dissociation constant Kd was found to be 0.0462 nM, the koff was 9.58e-05 s⁻¹ and the kon worked out at 2.08e+06 M⁻¹ s⁻¹.
Consider B5, for which the Kd was 26.4 nM, the koff was 0.0012 s⁻¹ and the kon worked out at 45500 M⁻¹ s⁻¹.
Turning to B6, the Kd came out at 0.106 nM, the koff came to 0.000117 s⁻¹ and the kon was found to be 1.11e+06 M⁻¹ s⁻¹.
Regarding B7, the dissociation constant Kd is 0.053 nM, the koff amounted to 0.000101 s⁻¹ and the kon is 1.91e+06 M⁻¹ s⁻¹.
In the case of B8, the Kd stood at 0.0465 nM, the koff amounted to 0.000149 s⁻¹ and the kon came to 3.22e+06 M⁻¹ s⁻¹.
As for B9, the Kd worked out at 0.0918 nM, the koff was determined as 0.000123 s⁻¹ and the kon came to 1.34e+06 M⁻¹ s⁻¹.
For B10, the Kd came out at 0.0456 nM, the koff stood at 0.000129 s⁻¹ and the association rate constant (kon) worked out at 2.83e+06 M⁻¹ s⁻¹.
As for B11, the Kd stood at 0.0733 nM, the koff is 0.000107 s⁻¹ and the kon is 1.46e+06 M⁻¹ s⁻¹.
Consider B12, for which the Kd was 1.23 nM, the koff turned out to be 0.0011 s⁻¹ and the kon worked out at 896000 M⁻¹ s⁻¹.

As usually defined, the Kd is the concentration at which binding is half-saturated. The term koff denotes the rate constant with which the complex falls apart. Usually kon stands for the rate constant with which the complex forms.
